Laboratory results published in US20220112288A1 (published 2022).

What was measured:
human CD4 = biological target: T1, human CD4 (human, UniProt P01730 26-458); assay: FACS, clonal hybridoma supernatant on human PBMCs
T1 construct: whole, on cells; also called hCD4

[1] = biological target: T2, Recombinant human CD4 (R&D Systems, Cat. 10327-CD) (human, UniProt P01730 26-390, limits assumed); assay: BLI Octet, non-clonal supernatant on AMC sensor, 100 nM human CD4;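 further: hybridoma supernatants diluted 1:3, antibodies captured on AMC biosensors, association and dissociation with CD4 followed, curves smoothed and fit locally with 1:1 binding model for single-point kinetics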
T2 construct: Bought reagent; also called huCD4

[2] = biological target: T2, Recombinant human CD4 (R&D Systems, …); assay: BLI Octet, non-clonal supernatant on AMC sensor, 100 nM human CD4, 1:1 local fit;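 further: Single-concentration kinetics per supernatant, with the 1:1 model fitted across both the association and dissociation phases of the sensorgram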

Row | Binder | % CD4 Stain (human CD4) [%] | gMFI of CD4+ (human CD4) [gMFI] | Response [1] | Kd [2] [nM] | koff [2] [s⁻¹] | kon [2] [M⁻¹ s⁻¹]
1 | 75110_01L08A (antibody, V domains shown, Tested as clonal hybridoma supernatant (AlivaMab Mouse Kappa; anti-mouse Fc detection)) VH: QVQLQESGPGLVKPSETLSLTCTVSGGSISHYYWSWIRQPPGKGLEWIGYIHYSGTTNYNPSLKSRVTISVDTSKNQLSLKLRSVTAADTAVYYCARDQGFSSGGMDVWGQGTTVTVSS VL: not shown | 35.3 | 208000 | – | – | – | –
2 | 75110_01J17A (antibody, V domains shown, Tested as clonal hybridoma supernatant (AlivaMab Mouse Kappa; anti-mouse Fc detection); also called Sib1.12) VH: EVQLVESGGGLVQPGGSLRLSCAASGFTFSSYDMHWVRQGTGKGLEWVSTIGTADDTYYPGSVKGRFTISRENAENSLYLQMNSLRAGDTAVYYCARGGDYYYGMDVWGQGTTVTVSS VL: EIVLAQSPGTLSLSPGERATLSCRASQSVYISYLAWYQQKPGQAPRLLIYGASSRATGIPDRFSGSGSGTDFTLTITRLEPEDFAVYYCQQFGSSPFTFGPGTKVDFK | 35.2 | 167000 | – | – | – | –
3 | 75110_01G11A (antibody, V domains shown, Tested as clonal hybridoma supernatant (AlivaMab Mouse Kappa; anti-mouse Fc detection); also called Sib1.6) VH: EVQLVESGGGLVQPGGSLRLSCAASGFTFSSYDMHWVRQATGKGLEWVSTIGTAGDTYYPGSVKGRFTISRENARNSLFLQMNSLRAGDTAVYYCARGGDYYYGMDVWGQGTTVTVSS VL: EIVLTQSPGTLSLFPGERATLSCRASQNTYSSYLAWYQQKPGQAPRLLIYGASNRATGIPDRFSGSGSGTDFTLTISRLEPEDFAVYYCQQHGTSPFTFGPGTKVDIK | 39 | 164000 | – | – | – | –
4 | 75110_01K10A (antibody, V domains shown, Tested as clonal hybridoma supernatant (AlivaMab Mouse Kappa; anti-mouse Fc detection); also called Sib1.3) VH: EVQLVESGGALVQPGGSLRLSCAASGFTFRNYDMHWVRQATGKGLEWVSTIGTAGDTYYPGSVKGRFTISRENAKNSLYLQMNSLRAGDTAVYYCARGGDYYYGMDVWGQGTTVTVSS VL: EIVLTQSPDTLSLSPGERATLSCRASQSLSSVYLAWYQQKPGQAPRLLIYGASSRATGIPDRFSGTGSGTDFTLTISRLEPEDFAVYYCQQYGSSPFTFGPGTKVDIK | 38 | 191000 | – | – | – | –
5 | 75110_01J09A (antibody, V domains shown, Tested as clonal hybridoma supernatant (AlivaMab Mouse Kappa; anti-mouse Fc detection); also called Sib2.2) VH: EVQLVESGGGLVQPGGSLRLSCVASGFTFSSYWMSWVRQAPGKGLEWVANTKEDGSDKYYVDSVKGRFTICRDNAKNSLYLQMNSLRAEDTAVYYCAREGGQWLALDYWGQGTLVTVSS VL: DIQMTQSPSSVSASVGDRVTINCRASQGISSWLAWYQQKPGKAPNLLIFGASSLQSGVPSRFSGSGFGTDFSLTITTLQPEDFATYHCQQANSFPWTFGQGTKVEIK | 34.8 | 143000 | – | – | – | –
6 | 75110_01H18A (antibody, V domains shown, Tested as clonal hybridoma supernatant (AlivaMab Mouse Kappa; anti-mouse Fc detection); also called Sib6.1) VH: QVQLQQWGAGLLKPSETLSLTCAVYGGSFSGYYWSWIRQSPGKGLEWIGEINQSGSTNYNPSLKSRVTISVDTSKNQFSLKLSSVTAADTAVYYCARVINWFDSWGQGTLVTVSS VL: DIQMTQSPSSVSASVGDRVTITCRASQGISSWLAWYQQKPGKAPKLLIYAASSFQSGVPSRFSGSGSGTDFTLTISSLQTEDFATYYCQQANSFPYTFGQGTRLEIK | 48.8 | 101000 | – | – | – | –
7 | 75110_02E22A (antibody, V domains shown, Tested as clonal hybridoma supernatant (AlivaMab Mouse Kappa; anti-mouse Fc detection); also called Sib7.1) VH: QVQLQESGPGLVKPSETLSLTCTVSGGSISSFYWSWIRQPAGKGLEWIGRIYTSGSTNYNPSLKSRVTMSVDTSKNQFSLKLSSVTAADTAVYYCARELEKRNYYGMDVWGQGTTVTVSS VL: DIQMTQSPSSLSASVGDRVTITCQASHDISNYLNWYQQKPGKAPKLLIFDASTLETGVPSRFSGSGSGTYFTFTIRSLQPEDIATYYCQQYDSLPLTFGGGTKVEIK | 32.8 | 268000 | – | – | – | –
8 | 75110_02E08A (antibody, V domains shown, Tested as clonal hybridoma supernatant (AlivaMab Mouse Kappa; anti-mouse Fc detection)) VH: QVQLQESGPGLVKPSETLSLTCTVSGGSISTYYWTWIRQPAGKGLEWIGRVYTSGDTNYNPSLKSRVAMSLDTSKNQFSLKLSSVTAADTAVYYCARDSGALYSWNYGDAFDIWGQGTMVTVSS VL: DIQMTQSPSAMSASVGDRVTITCRASQDISNYLAWFQQKPGKVPKRLIYAASSLQSGVPSRFSGSGSGTEFTLTISSLQPEDFATYYCLQHNSYPRTFGQGTKVEIK | 35.4 | 115000 | – | – | – | –

Next, values leading:

Row | % CD4 Stain (human CD4) [%] | gMFI of CD4+ (human CD4) [gMFI] | Response [1] | Kd [2] [nM] | koff [2] [s⁻¹] | kon [2] [M⁻¹ s⁻¹] | Binder
9 | 28.2 | 203000 | – | – | – | – | 75110_02K11A (antibody, V domains shown, Tested as clonal hybridoma supernatant (AlivaMab Mouse Kappa; anti-mouse Fc detection); also called Sib3.1) VH: QVQLQESGPGLVKPSQTLSLTCTVSGGSISSGFYYWTWIRQHPGKGLEWIGYISYSGNTYYNPSFKSRLTISVDTSKSQFSLKLSSVTAADTAVYYCARDRPSNFDAFDIWGQGTMVTVSS VL: not shown
10 | 36.1 | 145000 | – | – | – | – | 75110_02I16A (antibody, V domains shown, Tested as clonal hybridoma supernatant (AlivaMab Mouse Kappa; anti-mouse Fc detection); also called 75110_02116A) VH: QVQLQQWGAGLLKPSETLSLTCDVYGGSFSGYYWTWIRQPPGKGLEWIGEINHSGTTNSNPSLKSRVTISVDTSKSQFSLRLSSVTAADTAVYFCTRELNWFDPWGQGTLVTVSS VL: DIQMTQSPSSVSASVGDRVTITCRASQDIANWLAWYQQKPGKAPQLLIYAASSLLGGVPSRFSGSGSGADFTLTISSLHPEDFATYYCQQANSFPYTFGQGTKLEIK
11 | – | – | 0.105 | 19.2 | 0.00274 | 143000 | 75110_14N19A (antibody, V domains shown, Tested as non-clonal AlivaMab Mouse Kappa hybridoma supernatant, captured by anti-mouse IgG Fc sensor) VH: QVQLQESGPGLVKPSETLSLTCTVSGGSISRYYWSWIRQPAGKGLEWIGRICTSENPNYNPALKSRVTMSVDTSKNQFSLKLSSVTAADTAVYYCARELERLNYYGMDVWGQGTTVTVSS VL: DIQMTQFPSSLSASVGDRVTITCQASQDISNYLNWYQQKPGKAPKLLIYDASNLESGVPSRFSGRGSGTDFTFTISSLQPEDFATFYCQQYDTLPITFGQGTRLEIK
12 | – | – | 0.149 | 12.3 | 0.00185 | 150000 | 75110_14P05A (antibody, V domains shown, Tested as non-clonal AlivaMab Mouse Kappa hybridoma supernatant, captured by anti-mouse IgG Fc sensor) VH: EVQLVESGGGLVQPGGSLRLSCAASGFTFSSYDVHWVRQATGKGLEWVSTIGTAGDTYYPGSVKGRFTISRENAKNSLYLQMNSLRAGDTAVYYCARGGFYYYGMDVWGQGTTVTVSS VL: EIVLTQSPGTLSLSPGERATLSCRASQSVSSSYLAWYQQKPGQTPRLLIYGASSRATGIPDRFSGSGSGTDFTLTISRLEPEDFAVFYCQQSGSSPFTFGPGTKVDVK
13 | 40.5 | 162000 | – | – | – | – | 75110_02I18A (antibody, V domains shown, Tested as clonal hybridoma supernatant (AlivaMab Mouse Kappa; anti-mouse Fc detection); also called 75110_02118A; Sib1.14) VH: EVQVVESGGGLVQPGGSLRLSCAASGFTFSSYDMHWVRQATGKGLEWVSTIGTAGDTYYPGSVKGRFTISRENAKNSLYLQMNSLRAGDTAVYYCARGGYYYYGMDVWGQGTTVTVSS VL: EIVLTQSPGTLSLSPGERATLSCRASQSVSSSYLAWYQQKPGQSPRLLIHGASSRATGIPDRVSGSGSGTDFTLTISRLEPEDFAVYYCQQYGSSPFTFGPGTKVDIK
14 | 36.1 | 169000 | – | – | – | – | 75110_03C01A (antibody, V domains shown, Tested as clonal hybridoma supernatant (AlivaMab Mouse Kappa; anti-mouse Fc detection); also called Sib6.2) VH: QVQLQQWGAGLLKPSETLSLTCAVYGGSFSGYYWSWIRQSPGKGLEWIGEINQSGSTNYNPSLKSRVTISVDTSKDQFSLKLSSVTAADTAVYYCARVINWFDSWGQGSLVTVSS VL: DIQMTQSPSSVSASVGDRVTITCRASQGISSWLAWYQQKPGNAPKLLIYDASSFQSGVPSRFSGSGSGTDFTLTISSLQTEDFATYYCQQANSFPYTFGQGTKLEIK
15 | – | – | 0.0852 | < 0.001 | < 1e-07 | 42700 | 75110_14I16A (antibody, V domains shown, Tested as non-clonal AlivaMab Mouse Kappa hybridoma supernatant, captured by anti-mouse IgG Fc sensor) VH: QVQLQESGPGLVKPSETLSLTCTVSNGSISSYYWSWIRQSAGKGLEWIGRIYTSGSTNYNPSLKSRVTMLVDTSKNQFSLKLSSVTAADTAVYYCARDREDYYYYGMDVWGQGTTVTVSS VL: DIQMTQSPSSLSASVGDRVTITCQASHDISNYLNWYQQKPGKAPKLLLYYASNLETGVPSRFSGSGSGTDFTFTITSLQPEDIGTYSCQQYDNLPLTFGGGTKVEIK
